Assay [1] addresses Helicobacter pylori FabX R164A (H. pylori). Briefly: ITC.
The next assay addresses T1, Helicobacter pylori FabX (H. pylori).
T1 chain: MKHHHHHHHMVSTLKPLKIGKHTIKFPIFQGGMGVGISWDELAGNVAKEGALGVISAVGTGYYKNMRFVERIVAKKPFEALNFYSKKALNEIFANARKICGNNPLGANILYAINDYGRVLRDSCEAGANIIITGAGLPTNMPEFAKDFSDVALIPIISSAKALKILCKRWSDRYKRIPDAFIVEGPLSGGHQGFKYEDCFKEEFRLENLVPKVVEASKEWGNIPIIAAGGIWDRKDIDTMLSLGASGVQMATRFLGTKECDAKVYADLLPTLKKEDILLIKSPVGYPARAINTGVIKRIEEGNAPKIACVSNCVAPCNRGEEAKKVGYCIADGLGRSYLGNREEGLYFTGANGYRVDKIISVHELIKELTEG
In words: ITC. Background: ITC needs no label: the signal is the heat of the interaction.

B1: Helicobacter pylori holo-acyl carrier protein (natural protein)
chain: MALFEDIQAVIAEQLNVDAVQVTPEAEFVKDLGADSLDVVELIMALEEKFGVEIPDEQAEKIINVGDVVKYIEDNKLA
modifications: phosphopantetheine group (PPant) on Ser36
For the molecule B1, the Kd (usually the equilibrium constant for the complex coming apart) is > 200 µM in assay [1] and 1.64 µM in the assay with Helicobacter pylori FabX.

The values are drawn from article PMC8626469 (2021).
